Values quoted from earlier work as cited in patent publication US7410776B2, “Polypeptides, their production and use” (Takeda Pharmaceutical Company Limited, priority 1997, dated 2008).

Molecular target: T1, APJ (Homo sapiens, UniProt P35414)
T1 construct: host or cells: CHO cells
T1 sequence (P35414 1-380): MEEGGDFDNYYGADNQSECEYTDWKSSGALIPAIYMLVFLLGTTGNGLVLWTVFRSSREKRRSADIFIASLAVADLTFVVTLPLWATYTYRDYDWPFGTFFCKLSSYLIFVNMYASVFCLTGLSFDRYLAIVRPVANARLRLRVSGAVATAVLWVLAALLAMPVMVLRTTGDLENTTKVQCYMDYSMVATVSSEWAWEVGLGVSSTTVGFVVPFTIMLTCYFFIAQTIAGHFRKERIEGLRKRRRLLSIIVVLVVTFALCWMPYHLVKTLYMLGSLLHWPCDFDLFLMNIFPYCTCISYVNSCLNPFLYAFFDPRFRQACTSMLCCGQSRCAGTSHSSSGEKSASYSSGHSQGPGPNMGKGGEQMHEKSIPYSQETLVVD
Conditions: APJ expressed in CHO cells

angiotensin II (DRVYIHPF; Angiotensin-2; UniProt P01019 25-32, looked up) [known peptide tested on APJ expressed in CHO cells]
reaction with APJ: no reaction was detected at all
